# ± gives the half width of the 95% confidence interval.
# Tests used:
# [1] = folding stability dG unfold from trypsin proteolysis; higher = more stable
# How it was run: (§1)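 Designed mini-proteins with no cysteine and under 80 residues were kept only if AlphaFold2 dimer inter-PAE was above 15. In a PA-tagged cDNA display construct, they were digested with trypsin and chymotrypsin and then sequenced. K50 was inferred by Bayesian fitting of counts, and unfolding free energy was derived per protease or combined against a sequence-predicted unfolded-state K50 and a shared folded-state K50.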
# [2] = folding stability dG unfold from chymotrypsin proteolysis; higher = more stable
# How it was run: as §1
# [3] = folding stability dG unfold (combined trypsin and chymotrypsin); higher = more stable
# How it was run: as §1
Sequence,folding stability dG unfold [1] [kcal/mol],folding stability dG unfold [2] [kcal/mol],folding stability dG unfold [3] [kcal/mol]
SAGGGQPVKITEIENIDPNNGKITFEIVDPDDGRPLKIKIPVQRRPNGKPYLQIEIEVDGKKWEIMFMSAGG [r13_993_TrROS],1.7 ± 0.17,1.67 ± 0.16,1.87 ± 0.15
SAGGSAGGSAGKLKIKSVITFESEDDLIVKLIEVDDKVFAIVLDPKTGKPVKIIPDNEIFSAGGSAGGSAGG [r11_851_TrMRF],0.0652 ± 0.13,1.2 ± 0.13,0.873 ± 0.18
SAGGSAGGSVITLPNGVKLVTVKVSRPELDETETVTVPLEGMTLEEIKERLKKEGYKEVVFLESAGGSAGGS [r12_792_JUSTAS],1.19 ± 0.032,1.28 ± 0.036,1.26 ± 0.077
SAGGIVAADVSPDGTVYPISPEAVRALVDAIRDRYGFDVKVTITEARYGDRWVTVIPIELTGLSPEEASAGG [r13_790_TrMRF],1.31 ± 0.04,1.54 ± 0.02,1.5 ± 0.08
SAGGSAGGSAGKKKKKKPKKVKSVKIKITIKNKNGEKKEITVTFNKDGKLTLEEIKKLLKSAGGSAGGSAGG [r11_759_TrROS_Hall],2.22 ± 0.056,2.51 ± 0.12,2.28 ± 0.21
SAGGSAGGSELPIKEITVTSYDPKTGKYTVTITQGEGPTYTTTATSPEEVKKRYPDVKVTTSGSAGGSAGGS [r12_403_JUSTAS],0.434 ± 0.053,0.786 ± 0.035,0.718 ± 0.056
SAGGSAGGSAGGSGNYVPGPSLVTFYDPKTNKWTVVKSAPEEAVKLKASLPENVAKISLSAGGSAGGSAGGS [r4_282_JUSTAS],-0.237 ± 0.21,-0.0321 ± 0.27,-0.179 ± 0.32
SSGIAEIVAANPGVSLEELAKLIKEKLKAELPTDEPIEIKMTKSPDGYKITITIKDENNWHSDEYYVKPGSA [r9_805_JUSTAS],2.95 ± 0.2,3.14 ± 0.16,3.07 ± 0.19
SAGGSQKLPPGETIPIRIPGFQIEISPDKTTIHVMWPDPDEAKDFLKNLPFPIKIDKVEVMPPEDFSAGGSA [r2_418_TrROS],0.515 ± 0.066,1.01 ± 0.035,0.85 ± 0.11
SAGGSAKWVLVRIELEKGGKPLEFYQRVKAKEPELDIKIPPGIEEEGFKILRIEVEEISPEELEKESAGGSA [r15_853_TrMRF],0.864 ± 0.04,1.32 ± 0.18,1.18 ± 0.15
SAGGSVEEIAEELAKQPSYTKVTVTLFVDPDGTARVVITDVENGKTYTVPLPPAATPVGTLTLPVESAGGSA [r2_74_JUSTAS],1.56 ± 0.026,1.68 ± 0.046,1.63 ± 0.083
SIKIQVHMWPDGFYVIKVRFPGNGKPIHIPFPPNETAEEQVDKIANNLWKQHGFEPVEVDIYPMPKPLPPSA [r9_1205_TrROS],1.81 ± 0.088,2.25 ± 0.034,2.15 ± 0.12
SAGMPLASVEVEIEKLPDGTYRVRARITIWDPVTGKPLREVEFEGPFESPEAAEAEALKKALEVLEADSAGG [r19_255_TrMRF],4.25 ± 0.18,4 ± 0.11,4.06 ± 0.13
SAGGSAGGSAGGKPYVIVPVTVRFTIDIPKDHPLLKELDINPEDVKIEFEFSFLGEVPASAGGSAGGSAGGS [r10_82_TrMRF],2.66 ± 0.096,2.97 ± 0.089,2.95 ± 0.12
SAGPTVRIHLPGFEPIRFPPGDELALPFPNGYYLIIRRKPDGEVEVFPMGGEERKLPDADEVEIYMFPASAG [r5_869_TrROS],0.665 ± 0.11,1.32 ± 0.15,1.07 ± 0.13
MTTRTLTLTVETSSPEEAEAVREKIRAELGRPDVDVEILEVTFSPDGTVTITIRLAPGVPEERVRALLDALS [r1_485_JUSTAS],3.37 ± 0.05,2.266 ± 0.0084,2.79 ± 0.034

Sequence,folding stability dG unfold [1] [kcal/mol],folding stability dG unfold [2] [kcal/mol],folding stability dG unfold [3] [kcal/mol]
SAVTPISLPSETGTLYRTDTDVILVVLKDPDPSVYRIITLKKKSADIKPLDENILGELSPEEANNPELLSAG [r14_384_JUSTAS],0.617 ± 0.055,0.756 ± 0.11,0.742 ± 0.081
SAGIPPDDPNDIYIVPVKITPVPDGSLQIEIIIVWPDGEVYTMEQEFDPNGNIEEMDMEPMPPEDIKESAGG [r19_285_TrROS],1.1 ± 0.1,1.31 ± 0.081,1.2 ± 0.14
SAGYVEPYEDGMVKIDSTFFLNDWVFKVDWWIMPNGNIMISIEPIEPIPPPPPVPIDADDPEQKEEAQQSAG [r5_715_TrROS],1.69 ± 0.18,2.69 ± 0.069,2.41 ± 0.23
SAGGSAGGSAGGKKTLKLPVKITPVKDGLLITLPDGTPILVPKNVTVETTDTTAYVTIGSAGGSAGGSAGGS [r10_305_TrMRF],0.21 ± 0.067,-0.375 ± 0.28,0.0124 ± 0.2
SAGGSAGVVKGRIEITFVVPPDAPGVEELARETVKRIGFDAENVEILKVERLPDGSYRVTLLLDAPSAGGSA [r15_654_TrMRF],3.17 ± 0.059,4.47 ± 0.052,4.21 ± 0.071
GVVRPLGDPNGQLSIVATDPEGNLLVKALVPNDEAQVEAAKKELLAAMPGLDEKEVVFSIYDPLTGKTKILS [r1_55_JUSTAS],1.07 ± 0.1,1.61 ± 0.025,1.54 ± 0.12
MTLEELKAAEGKRLEDVVTVEIVRVERDPETGEEKVVEKRTITFPPGMTLEELKALLESLPAEVRITRVRRS [r1_132_TrROS_Hall],1.85 ± 0.041,2.27 ± 0.035,2.11 ± 0.11
SAGGSAKKPKPIYLKLTITLSEEEAKKLAEELAEELKKLFPDVEIVEIKVEKDENGNVTVTIYVRLSAGGSA [r15_718_TrROS_Hall],3.14 ± 0.22,4.57 ± 0.14,4.25 ± 0.28
SAGGSAGGKLKIEITLEKVKNPETKEYYYRLRVTIYNENGKKIKEIEVVAKSKEEALEALKKLLSAGGSAGG [r6_974_TrROS_Hall],4.98 ± 0.22,5.24 ± 0.068,5.2 ± 0.13
AELEAEVVSVEEVNGETVVVVRVDGELVVRTFRPPPPRPLSLEELKRLAEELREQNPELAEEAEKLLEALAS [r1_330_TrROS_Hall],2.49 ± 0.12,2.19 ± 0.11,2.33 ± 0.26
SAGGMSITLTPDDGSTLTIPLSDPTLSLEEVVQMVVDKQEGAVNIQVTITFPDSEVTKTYTIPSPGGSAGGS [r16_216_JUSTAS],0.846 ± 0.041,0.275 ± 0.13,0.605 ± 0.13
SAGGSAGGRRIYLPDFGAGGSGLVKAAEIAAAFEEEGYVASVSFSTSPFGPSVLVVDVASPSELSAGGSAGG [r6_597_TrMRF],-0.606 ± 0.17,-0.0496 ± 0.13,-0.171 ± 0.14
SAGGSAGGSAPNLKLKIKLDIHVFPDGWLYVSTKIEIENPGKPVEFTIMFRFPIPPNEPAPSAGGSAGGSAG [r3_383_TrROS],3.85 ± 0.27,5.35 ± 0.15,5.16 ± 0.27
SAGGSAGGSAGGMLKTKVTVDPTPDGVTRVTETTYDPSTGALVKTSTTIVVPGTGEVTAVSAGGSAGGSAGG [r7_804_JUSTAS],-0.779 ± 0.18,1.04 ± 0.031,0.669 ± 0.062
SAGGSAGGSAGGGRTYTFTLPDGTVLTVTADDMTEEEIRAKLEAEGGEIVEITVEPGLSSAGGSAGGSAGGS [r10_572_JUSTAS],2.43 ± 0.034,2.991 ± 0.018,2.86 ± 0.07
